Columns and labels:
Coagulation factor XIa [1] = molecular target: Coagulation factor XIa
Coagulation factor XIa [2] = assay: enzyme inhibition kinetics; XIa (0.5 nM) preincubated with peptide 30 min at 37 °C, chromogenic substrate S2366; 50 mM Tris pH 7.4, 140 mM NaCl, 5 mM CaCl2, 0.1% BSA; double reciprocal plots, mixed inhibition

Substance: Schistosoma Kunitz peptide Shp4 (Schistosoma haematobium peptide-repeat 4) (domain or fragment)
- inhibition of XIa activity on a chromogenic substrate, concentration dependent (Coagulation factor XIa [1]): 7.1 nM
- Ki (Coagulation factor XIa [2]): 3.35 nM
- Ki' (towards the enzyme-substrate complex) (Coagulation factor XIa [2]): 1.64 nM

Source: paper PMC12237034
